This is an account of results in patent publication US20230051701A1 (Bristol-Myers Squibb, published 2023).

Residue numbers refer to the chain shown, from its start. Names may count otherwise. “And” between values parts separate entries of the source, which are not always exact repeats. Equal entries are not always repeated.

The chains are these.
B1: 10D2 (antibody, human IgG4, kappa, V domains shown)
VH: QVQLVESGGGVVQPGRSLRLSCAASGFTFSNYGLHWVRQAPGKGLEWVAVIRYDGSNKYYADSVKGRFTISRDNSKNTLYLQMSSLRAEDTAVYYCARGGSSWYPDGLDVWGQGTTVTVSS
VL: DIQMTQSPSSLSASVGDRVTITCRASQGISSWLAWYQQKPEKAPKSLIYAASSLQSGVPSRFSGSGSGTDFTLTISSLQPEDFATYYCQQYNSYPLTFGGGTKVEIKR
notes: also called 10D2-2
B2: 24H2 (antibody, human IgG4, kappa, V domains shown)
VH: B1 VH with L34M, R52W, S56G, Y80F, S84N, G107A, L108F, V110I, T116M
VL: B1 VL
notes: also called 24H2-1
B3: 4C3 (antibody, human IgG1, kappa, V domains shown)
VH: EVQLVESGGGLVQPGRSLRLSCAASGFTFDDYAMHWVRQAPGKGLEWVSGISWKSGSIGYADSVKGRFTISRDNAKNSLYLQMNSLRAEDTALYYCVKGYYVILTGLDYWGQGTLVTVSS
VL: not shown
notes: IgG1za from hybridoma; also called 4C3-1
B4: CD73.4-IgG2.5G1-KH (antibody)
heavy: QVQLVESGGGVVQPGRSLRLSCAASGFTFSNYGMHWVRQAPGKGLEWVAVILYDGSNKYYPDSVKGRFTISRDNSKNTLYLQMNSLRAEDTAVYYCARGGSSWYPDSFDIWGQGTMVTVSSASTKGPSVFPLAPSSRSTSESTAALGCLVKDYFPEPVTVSWNSGALTSGVHTFPAVLQSSGLYSLSSVVTVPSSNFGTQTYTCNVDHKPSNTKVDKTVERKCCVECPPCPAPPVAGPSVFLFPPKPKDTLMISRTPEVTCVVVDVSHEDPEVKFNWYVDGVEVHNAKTKPREEQYNSTYRVVSVLTVLHQDWLNGKEYKCKVSNKALPAPIEKTISKAKGQPREPQVYTLPPSREEMTKNQVSLTCLVKGFYPSDIAVEWESNGQPENNYKTTPPVLDSDGSFFLYSKLTVDKSRWQQGNVFSCSVMHEALHNHYTQKSLSLSPGK
light: not shown
B5: CD73.4-IgG2.5G1.1f-KH (antibody)
heavy: B4 heavy with A330S, P331S
light: not shown
B6: CD73.4-IgG2.3G1-KH (antibody)
heavy: B4 heavy with S135C, C223S
light: not shown
B7: CD73.4-IgG2.5 (antibody)
heavy: B4 heavy with K274Q, Y296F, Y300F, L309V, A327G, A339T, V397M
light: not shown
B8: CD73.4-IgG2.3-plusTHT (antibody)
heavy: QVQLVESGGGVVQPGRSLRLSCAASGFTFSNYGMHWVRQAPGKGLEWVAVILYDGSNKYYPDSVKGRFTISRDNSKNTLYLQMNSLRAEDTAVYYCARGGSSWYPDSFDIWGQGTMVTVSSASTKGPSVFPLAPCSRSTSESTAALGCLVKDYFPEPVTVSWNSGALTSGVHTFPAVLQSSGLYSLSSVVTVPSSNFGTQTYTCNVDHKPSNTKVDKTVERKSCVETHTCPPCPAPPVAGPSVFLFPPKPKDTLMISRTPEVTCVVVDVSHEDPEVQFNWYVDGVEVHNAKTKPREEQFNSTFRVVSVLTVVHQDWLNGKEYKCKVSNKGLPAPIEKTISKTKGQPREPQVYTLPPSREEMTKNQVSLTCLVKGFYPSDIAVEWESNGQPENNYKTTPPMLDSDGSFFLYSKLTVDKSRWQQGNVFSCSVMHEALHNHYTQKSLSLSPGK
light: not shown
B9: CD73.4-IgG2.3-plusGGG (antibody)
heavy: B8 heavy with T227G, H228G, T229G
light: not shown
B10: CD73.4-IgG2.5-plusTHT (antibody)
heavy: B8 heavy with C135S, S223C
light: not shown
B11: CD73.11-IgG2-C219S (antibody)
heavy: QVQLVESGGGVVQPGRSLRLSCAASGFTFSNYGMHWVRQAPGKGLEWVAVIWYDESNKYYADSVKGRFTISRDNSKNTLFLQMNSLRAEDTAVYYCARGYNSRWYPDAFDIWGQGTMVTVSSASTKGPSVFPLAPCSRSTSESTAALGCLVKDYFPEPVTVSWNSGALTSGVHTFPAVLQSSGLYSLSSVVTVPSSNFGTQTYTCNVDHKPSNTKVDKTVERKSCVECPPCPAPPVAGPSVFLFPPKPKDTLMISRTPEVTCVVVDVSHEDPEVQFNWYVDGVEVHNAKTKPREEQFNSTFRVVSVLTVVHQDWLNGKEYKCKVSNKGLPAPIEKTISKTKGQPREPQVYTLPPSREEMTKNQVSLTCLVKGFYPSDIAVEWESNGQPENNYKTTPPMLDSDGSFFLYSKLTVDKSRWQQGNVFSCSVMHEALHNHYTQKSLSLSPG
light: not shown
notes: 4D4 variable regions; also called CD73.11-IgG2CS; mAb-CD73.11-Vh-hHC-IgG2-C219S
B12: CD73.6-IgG2-C219S-IgG1.1f (antibody)
heavy: B4 heavy with G55S, S135C, C223S, A330S, P331S
light: not shown
notes: also called CD73.6-IgG2CS IgG1.1f

The first test deals with T1, rhCD73 bound to his-tag magnet beads (human, UniProt P21589 27-549, limits assumed).
T1 sequence: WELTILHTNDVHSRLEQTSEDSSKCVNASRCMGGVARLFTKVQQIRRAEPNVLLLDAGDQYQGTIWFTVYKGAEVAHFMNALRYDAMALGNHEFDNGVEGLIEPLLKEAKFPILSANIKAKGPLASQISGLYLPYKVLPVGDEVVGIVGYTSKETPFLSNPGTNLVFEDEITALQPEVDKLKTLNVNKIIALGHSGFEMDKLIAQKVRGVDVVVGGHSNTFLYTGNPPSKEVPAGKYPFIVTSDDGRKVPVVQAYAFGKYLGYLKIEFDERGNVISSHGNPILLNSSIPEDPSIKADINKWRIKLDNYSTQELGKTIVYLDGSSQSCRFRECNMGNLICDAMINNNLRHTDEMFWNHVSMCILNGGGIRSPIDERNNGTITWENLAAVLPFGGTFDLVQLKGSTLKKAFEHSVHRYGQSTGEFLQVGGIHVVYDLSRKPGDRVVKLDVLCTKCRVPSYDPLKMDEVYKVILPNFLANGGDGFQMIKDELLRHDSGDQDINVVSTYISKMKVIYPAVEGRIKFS
Description: cell-based or functional assay.
In the case of B1, the “EC50 (nM), inhibition of bead-bound rhCD73 enzymatic activity” value was determined as 6.94 nM.
For B2, the “EC50 (nM), inhibition of bead-bound rhCD73 enzymatic activity” value was 4.18 nM.

Another test concerns the target T2, human CD73 on cells (Calu6, NCI-H292, SK-MEL-24, human tumor cell lines, human B and T cells) (human, UniProt P21589 27-549).
T2 sequence: T1 sequence
Description: cell-based or functional assay.
Turning to B1, the “Ymax, CD73 internalization, Calu6, 2 h” value was 29 % of 100 nM 11F11.
Turning to B2, the “EC50 (nM), CD73 internalization, Calu6, 2 h” value is 8.2 nM and the “Ymax, CD73 internalization, Calu6, 2 h” value was 51 % of 100 nM 11F11.

A further test addresses T2, human CD73 on cells (Calu6, NCI-H292, …). As to the kind of experiment: cell-based or functional assay. This is another data set of the same source.
Consider B3, for which the “Ymax, cAMP HTRF assay” value is 80 % of 100 nM 11F11.

For the next test the target is unchanged. As to the kind of experiment: cell-based or functional assay. This is another data set of the same source.
As to B4, the “CD73 Inhibition EC50(nM), cAMP assay, Calu6” value (“CD73 Inhibition EC50(nM)” for short) is 0.44 nM and the “CD73 Inhibition S:B, cAMP assay, Calu6” value was found to be 42.
With B5, the “CD73 Inhibition EC50(nM)” value came out at 0.87 nM and the “CD73 Inhibition S:B, cAMP assay, Calu6” value turned out to be 45.
The matching figures for B6: 1.7 nM and 52.
The matching figures for B7: 2.17 nM and 51.
Turning to B8, the “CD73 Inhibition S:B, cAMP assay, Calu6” value was found to be 33.
Turning to B9, the “CD73 Inhibition EC50(nM)” value stood at 1.26 nM.
Turning to B10, the “CD73 Inhibition EC50(nM)” value worked out at 0.9 nM and the “CD73 Inhibition S:B, cAMP assay, Calu6” value is 44.

Another test concerns the target T3, N-terminal domain of hCD73 (residues 26-336 of human CD73), His-tagged (human, UniProt P21589 26-336).
T3 construct: also called N-hCD73; N-hCD73-his
T3 sequence: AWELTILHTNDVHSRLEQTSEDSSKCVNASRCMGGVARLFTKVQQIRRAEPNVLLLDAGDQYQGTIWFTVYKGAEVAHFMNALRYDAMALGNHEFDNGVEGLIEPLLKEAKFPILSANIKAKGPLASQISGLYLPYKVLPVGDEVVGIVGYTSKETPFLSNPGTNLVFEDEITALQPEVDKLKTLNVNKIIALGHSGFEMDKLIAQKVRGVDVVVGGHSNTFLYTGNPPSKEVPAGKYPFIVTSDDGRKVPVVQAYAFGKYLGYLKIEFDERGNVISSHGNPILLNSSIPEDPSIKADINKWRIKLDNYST
As to the kind of experiment: SPR, mAb captured on protein A. On the procedure: For these experiments, protein A (Pierce) was immobilized to a density of 3000 — 4000 RU on flow cells 1-4 of a CM5 sensor chip (GE Healthcare) using standard ethyl(dimethylaminopropyl) carbodiimide (EDC)/N-hydroxysuccinimide (NHS) chemistry, with ethanolamine blocking, in a running buffer of 0.01 M HEPES pH 7.4, 0.15 M NaCl, 3 mM EDTA, 0.005% v/v tween 20. […] The running buffer for the kinetic experiments was 10 mM sodium phosphate, 130 mM sodium chloride, 0.05% tween 20, pH 7.1. The surfaces were regenerated after each cycle using two 30 s pulses of 10 mM glycine pH 1.5 at a flow rate of 30 μl/min. Sensogram data was double-referenced and then fitted to a 1:1 Langmuir model using Biacore T100 evaluation software v2.0.4, to determine the association rate constant (ka), the dissociation rate constant (kd), and the equilibrium dissociation constant (KD).
Background: SPR reads the build-up and loss of mass on a sensor chip optically.
B1: the equilibrium dissociation constant (Kd) (usually the concentration at which binding is half-saturated) stood at 1.6 nM; the koff – broadly, the rate constant with which the complex falls apart – came to 0.00095 s⁻¹; the kon (usually the rate constant with which the complex forms) stood at 610000 M⁻¹ s⁻¹.
The matching figures for B2: 14 nM, 0.0032 s⁻¹ and 230000 M⁻¹ s⁻¹.
With B11, the Kd is 3.5 nM and 6.5 nM; the koff is 0.00028 s⁻¹ and 0.00051 s⁻¹; the association rate constant (kon) is 80000 M⁻¹ s⁻¹ and 79000 M⁻¹ s⁻¹.
Molecule B12 registered a Kd of 0.72 nM, a koff of 0.00022 s⁻¹ and an on-rate constant (kon) of 300000 M⁻¹ s⁻¹.
